Measured values taken from publication doi:10.1101/2025.08.26.672322.

Assays:
Gephyrin P1 wt [1] = assay: SEC
Gephyrin Δ199-233 [2] = assay: SEC
[3] = target: LSβ, fusion protein of lumazine synthase and GlyR β-subunit ICD (pentameric GlyR model); assay: co-sedimentation
Gephyrin P1 wt [4] = assay: ITC
Gephyrin Δ199-233 [5] = assay: ITC

Work on Gephyrin P1 wt (natural protein) yielded a stoichiometry N (Gephyrin P1 wt [1]) of 3.

Work on Gephyrin Δ199-233 (natural protein) yielded a stoichiometry N (Gephyrin Δ199-233 [2]) of 3 and a gephyrin in the pelleted fraction, fold of wt [3] of 2 fold.

Work on “GlyR β-subunit ICD peptide (domain or fragment)” yielded a KD high-affinity site (Gephyrin P1 wt [4]) of 63 nM, a KD low-affinity site (Gephyrin P1 wt [4]) of 1830 nM and a KD high-affinity site (Gephyrin Δ199-233 [5]) of 50 nM. It also gave a KD low-affinity site (Gephyrin Δ199-233 [5]) of 1540 nM.
